As a reminder, the Kd is the free concentration of one partner at which half of the binding sites on the other are occupied at equilibrium, for simple one-to-one binding.

In the assay the target is T1, ECFP-tagged calmodulin (CaM) (UniProt P0DP23 1-149).
T1 construct: calmodulin (CaM); also called ECFP-CaM; ECFP fused CaM; source: HEK293, transiently transfected, in live cells
In words: FRET or BRET; FRET 2-hybrid (3^3-FRET and E-FRET) in single live HEK293 cells, room temperature, basal (resting) Ca2+: Tyrode's bath with 2 mM Ca2+; relative (effective) dissociation constants Kd,EFF; stoichiometry ratio ν = EA,max/ED,max. The conditions noted are these: partners not purified. On the technique in general: In BRET a luciferase serves as donor, and the signal depends on an acceptor being close.

B1: EYFP tagged myosin Va three tandem IQ domain peptide (IQ4-6) (domain or fragment)
chain: RRAATIVIQSYLRGYLTRNRYRKILREYKAVIIQKRVRGWLARTHYKRTMKAIVYLQCCFRRMMAKRELKKLKIEARSVERYKK
notes: mouse myosin Va neck domain, three tandem IQ domains IQ4-6, residues R837-K920 (Uniprot Q99104); A three amino-acid linker 'AAA' joins EYFP with the peptide; source: HEK293, transiently transfected, in live cells
Take B1: the Kd was approximately 25 nM.

B2: EYFP tagged myosin Va five tandem IQ domain truncation (IQ2-6) (domain or fragment)
chain: MQRAAITVQRYVRGYQARCYAKFLRRTKAATTIQKYWRMYVVRRRYKIRRAATIVIQSYLRGYLTRNRYRKILREYKAVIIQKRVRGWLARTHYKRTMKAIVYLQCCFRRMMAKRELKKLKIEARSVERYKK
notes: mouse myosin Va neck domain, five tandem IQ domains IQ2-6, residues M789-K920 (Uniprot Q99104); A three amino-acid linker 'AAA' joins EYFP with the peptide; source: HEK293, transiently transfected, in live cells
With B2, the dissociation constant (Kd) was approximately 25 nM.

B3: EYFP tagged myosin Va four tandem IQ domain peptide (IQ3-6) (domain or fragment)
chain: RTKAATTIQKYWRMYVVRRRYKIRRAATIVIQSYLRGYLTRNRYRKILREYKAVIIQKRVRGWLARTHYKRTMKAIVYLQCCFRRMMAKRELKKLKIEARSVERYKK
notes: mouse myosin Va neck domain, four tandem IQ domains IQ3-6, residues R814-K920 (Uniprot Q99104); A three amino-acid linker 'AAA' joins EYFP with the peptide; source: HEK293, transiently transfected, in live cells
On to B3, for which the Kd is approximately 25 nM.

B4: EYFP-tagged full length myosin Va neck domain peptide containing six IQ domains (IQ1-6) (domain or fragment)
chain: LRAACIRIQKTIRGWLLRKRYLCMQRAAITVQRYVRGYQARCYAKFLRRTKAATTIQKYWRMYVVRRRYKIRRAATIVIQSYLRGYLTRNRYRKILREYKAVIIQKRVRGWLARTHYKRTMKAIVYLQCCFRRMMAKRELKKLKIEARSVERYKK
notes: mouse myosin Va full length neck domain, six tandem IQ domains IQ1-6, residues L766-K920 (Uniprot Q99104); A three amino-acid linker 'AAA' joins EYFP with the peptide; source: HEK293, transiently transfected, in live cells
In the case of B4, the Kd is approximately 25 nM.

B5: EYFP tagged myosin Va peptide containing a single IQ domain (IQ6) (domain or fragment)
chain: TMKAIVYLQCCFRRMMAKRELKKLKIEARSVERYKK
notes: mouse myosin Va neck domain, single IQ domain IQ6, residues T885-K920 (Uniprot Q99104); A three amino-acid linker 'AAA' joins EYFP with the peptide; also called EYFP-tagged IQ6 peptide; source: HEK293, transiently transfected, in live cells
For the molecule B5, the Kd is approximately 25 nM.

B6: EYFP tagged myosin Va two tandem IQ domain peptide (IQ5-6) (domain or fragment)
chain: REYKAVIIQKRVRGWLARTHYKRTMKAIVYLQCCFRRMMAKRELKKLKIEARSVERYKK
notes: mouse myosin Va neck domain, two tandem IQ domains IQ5-6, residues R862-K920 (Uniprot Q99104); A three amino-acid linker 'AAA' joins EYFP with the peptide; source: HEK293, transiently transfected, in live cells
Regarding B6, the Kd was approximately 25 nM.

Values taken from article PMC5150656, “Detecting stoichiometry of macromolecular complexes in live cells using FRET” (Nature Communications, 2016).
